Measured values taken from paper PMC4117426, “SlmA Antagonism of FtsZ Assembly Employs a Two-pronged Mechanism like MinCD” (PLoS Genetics, 2014).

B3: FtsZ (natural protein, E. coli, UniProt P0A9A6 1-383, looked up)
chain: MFEPMELTNDAVIKVIGVGGGGGNAVEHMVRERIEGVEFFAVNTDAQALRKTAVGQTIQIGSGITKGLGAGANPEVGRNAADEDRDALRAALEGADMVFIAAGMGGGTGTGAAPVVAEVAKDLGILTVAVVTKPFNFEGKKRMAFAEQGITELSKHVDSLITIPNDKLLKVLGRGISLLDAFGAANDVLKGAVQGIAELITRPGLMNVDFADVRTVMSEMGYAMMGSGVASGEDRAEEAAEMAISSPLLEDIDLSGARGVLVNITAGFDLRLDEFETVGNTIRAFASDNATVVIGTSLDPDMNDELRVTVVATGIGMDKRPEITLVTNKQVQQPVMDRYQQHGMAPLTQEQKPVAKVVNDNAPQTAKEPDYLDIPAFLRKQAD
notes: FtsZ, E. coli, untagged, from pSEB160; also called FtsZ-WT; WT FtsZ
B6: 6×His-FtsZ (natural protein, E. coli, UniProt P0A9A6 1-383, looked up)
chain: MFEPMELTNDAVIKVIGVGGGGGNAVEHMVRERIEGVEFFAVNTDAQALRKTAVGQTIQIGSGITKGLGAGANPEVGRNAADEDRDALRAALEGADMVFIAAGMGGGTGTGAAPVVAEVAKDLGILTVAVVTKPFNFEGKKRMAFAEQGITELSKHVDSLITIPNDKLLKVLGRGISLLDAFGAANDVLKGAVQGIAELITRPGLMNVDFADVRTVMSEMGYAMMGSGVASGEDRAEEAAEMAISSPLLEDIDLSGARGVLVNITAGFDLRLDEFETVGNTIRAFASDNATVVIGTSLDPDMNDELRVTVVATGIGMDKRPEITLVTNKQVQQPVMDRYQQHGMAPLTQEQKPVAKVVNDNAPQTAKEPDYLDIPAFLRKQAD
notes: FtsZ, E. coli; 6×His-tagged ftsZ amplified from pSEB160 (pSD119); By the printed primer the six His codons follow the start codon and precede Phe2; also called 6×His-tagged FtsZ-FL; source: E. coli JS238 with pSD119, purified (Ni-NTA); not shown: His6, N-terminal, kept

How the values were obtained:
[1] = target: B6; test: BLI; 6×His-FtsZ or variant (1 µM) immobilised on Ni-NTA tips; untagged SlmA preincubated with SBS17-30mer DNA in solution; 1× Pol buffer, room temperature; global fitting; settings: both partners purified
[2] = target: T1, 6×His-FtsZ-K190V (E. coli, UniProt P0A9A6 1-383, K190V); test: as above; settings: both partners purified
T1 construct: FtsZ, E. coli, His-tagged, with K190V; the construct is not described in the methods; Probably a derivative of pSD119 (N-terminal His6, full length)
T1 sequence (looked up): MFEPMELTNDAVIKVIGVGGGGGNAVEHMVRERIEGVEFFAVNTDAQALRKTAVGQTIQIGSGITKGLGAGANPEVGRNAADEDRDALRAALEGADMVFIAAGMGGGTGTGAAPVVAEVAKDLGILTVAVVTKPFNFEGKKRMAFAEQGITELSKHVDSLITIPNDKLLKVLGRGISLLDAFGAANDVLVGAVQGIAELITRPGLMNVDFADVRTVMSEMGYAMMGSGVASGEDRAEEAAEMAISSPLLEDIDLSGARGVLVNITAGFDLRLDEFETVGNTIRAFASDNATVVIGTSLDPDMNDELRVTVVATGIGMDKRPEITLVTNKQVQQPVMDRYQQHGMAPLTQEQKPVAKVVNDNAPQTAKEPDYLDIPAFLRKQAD

[3] = target: B3; test: BLI; competition: SlmA/SBS17-30mer on streptavidin tips; 4 µM FtsZ preincubated with various concentrations of ZipA185-328 (with GDP); settings: both partners purified
[4] = target: the molecule itself; test: negative-stain electron microscopy of polymers; FtsZ or variant 2 µM with 1 mM GTP in Pol buffer (50 mM HEPES-NaOH pH 8.0, 200 mM KCl, 10 mM MgCl2), room temperature 5 min, 1% uranyl acetate; self-assembly into filaments
[5] = target: T2, 6×His-FtsZ (E. coli, UniProt P0A9A6 1-383); test: BLI; 6×His-FtsZ (loaded at 1 µM) immobilised on Ni-NTA biosensor; untagged SlmA preincubated with SBS17-30mer DNA in solution; 1× Pol buffer (50 mM HEPES-NaOH pH 8.0, 200 mM KCl, 10 mM MgCl2), room temperature; global fit (GraphPad Prism 5); settings: both partners purified
T2 construct: FtsZ of E. coli, full length (FtsZ-FL), with an N-terminal 6×His tag, from pSD119; By the primer His-FtsZ-SstI the chain begins M-HHHHHH and goes on with F2 of FtsZ (FEPMELT...); also called 6×His-tagged FtsZ-FL; source: E. coli JS238 with pSD119, arabinose induced, purified (Ni-NTA); not shown: His6, N-terminal, kept
T2 sequence (looked up): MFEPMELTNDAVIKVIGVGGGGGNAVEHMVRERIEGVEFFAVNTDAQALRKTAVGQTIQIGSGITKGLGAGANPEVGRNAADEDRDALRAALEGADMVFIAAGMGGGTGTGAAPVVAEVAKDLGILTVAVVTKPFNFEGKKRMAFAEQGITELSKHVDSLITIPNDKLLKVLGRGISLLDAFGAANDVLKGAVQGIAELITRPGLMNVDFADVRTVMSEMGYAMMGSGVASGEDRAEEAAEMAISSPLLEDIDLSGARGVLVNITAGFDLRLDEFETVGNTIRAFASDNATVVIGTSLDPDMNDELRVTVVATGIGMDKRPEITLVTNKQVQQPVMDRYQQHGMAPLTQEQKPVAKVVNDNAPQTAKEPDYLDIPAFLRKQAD

[6] = target: T2, 6×His-FtsZ; test: BLI; 6×His-FtsZ (loaded at 1 µM) immobilised on Ni-NTA biosensor; untagged SlmA preincubated with SBS-18mer DNA in solution; 1× Pol buffer (50 mM HEPES-NaOH pH 8.0, 200 mM KCl, 10 mM MgCl2), room temperature; global fit (GraphPad Prism 5); settings: both partners purified
[7] = target: T2, 6×His-FtsZ; test: BLI; 6×His-FtsZ (loaded at 1 µM) immobilised on Ni-NTA biosensor; untagged SlmA without SBS DNA in solution; 1× Pol buffer (50 mM HEPES-NaOH pH 8.0, 200 mM KCl, 10 mM MgCl2), room temperature; global fit (GraphPad Prism 5); settings: both partners purified
[8] = target: T2, 6×His-FtsZ; test: BLI; 6×His-FtsZ (loaded at 1 µM) immobilised on Ni-NTA biosensor; untagged SlmA preincubated with SBS17-20mer DNA in solution; 1× Pol buffer (50 mM HEPES-NaOH pH 8.0, 200 mM KCl, 10 mM MgCl2), room temperature; global fit (GraphPad Prism 5); settings: both partners purified
[9] = target: T2, 6×His-FtsZ; test: BLI; 6×His-FtsZ (loaded at 1 µM) immobilised on Ni-NTA biosensor; untagged SlmA preincubated with SBS-14mer DNA in solution; 1× Pol buffer (50 mM HEPES-NaOH pH 8.0, 200 mM KCl, 10 mM MgCl2), room temperature; global fit (GraphPad Prism 5); settings: both partners purified

B1: untagged SlmA (natural protein, E. coli, UniProt P0C093 1-198, looked up)
chain: MAEKQTAKRNRREEILQSLALMLESSDGSQRITTAKLAASVGVSEAALYRHFPSKTRMFDSLIEFIEDSLITRINLILKDEKDTTARLRLIVLLLLGFGERNPGLTRILTGHALMFEQDRLQGRINQLFERIEAQLRQVLREKRMREGEGYTTDETLLASQILAFCEGMLSRFVRSEFKYRPTDDFDARWPLIAAQLQ
notes: SlmA, E. coli; Used with or without SBS DNA on 6×His-FtsZ tips; also called SlmA (untagged version); source: E. coli BL21 (λDE3)/pLysS with pSUMO-SlmA, purified (Ni-NTA; tag cleaved with Ulp1, flow-through collected)
B1 was tested, and the Kd [1] was 210 nM and the binding result [2] was “binds”.

B2: ZipA_(185–328) (domain or fragment)
chain: not shown
notes: amplified from chromosomal DNA; also called C-terminal domain of ZipA; source: expressed from pSD198 (pQE80 derivative)
In the case of B2, the “percent decrease of the FtsZ binding signal on SlmA/SBS17-30mer at a 1:1 ratio of FtsZ to ZipA185-328” value [3] is reported as ~30%.

B3: binds [4].

B4: FtsZ-K190V (natural protein, E. coli, UniProt P0A9A6 1-383, looked up)
chain: MFEPMELTNDAVIKVIGVGGGGGNAVEHMVRERIEGVEFFAVNTDAQALRKTAVGQTIQIGSGITKGLGAGANPEVGRNAADEDRDALRAALEGADMVFIAAGMGGGTGTGAAPVVAEVAKDLGILTVAVVTKPFNFEGKKRMAFAEQGITELSKHVDSLITIPNDKLLKVLGRGISLLDAFGAANDVLVGAVQGIAELITRPGLMNVDFADVRTVMSEMGYAMMGSGVASGEDRAEEAAEMAISSPLLEDIDLSGARGVLVNITAGFDLRLDEFETVGNTIRAFASDNATVVIGTSLDPDMNDELRVTVVATGIGMDKRPEITLVTNKQVQQPVMDRYQQHGMAPLTQEQKPVAKVVNDNAPQTAKEPDYLDIPAFLRKQAD
notes: FtsZ, E. coli, untagged, with K190V; pSEB160 derivative
B4: binds [4].

B5: FtsZ-D86N (natural protein, E. coli, UniProt P0A9A6 1-383, looked up)
chain: MFEPMELTNDAVIKVIGVGGGGGNAVEHMVRERIEGVEFFAVNTDAQALRKTAVGQTIQIGSGITKGLGAGANPEVGRNAADEDRNALRAALEGADMVFIAAGMGGGTGTGAAPVVAEVAKDLGILTVAVVTKPFNFEGKKRMAFAEQGITELSKHVDSLITIPNDKLLKVLGRGISLLDAFGAANDVLKGAVQGIAELITRPGLMNVDFADVRTVMSEMGYAMMGSGVASGEDRAEEAAEMAISSPLLEDIDLSGARGVLVNITAGFDLRLDEFETVGNTIRAFASDNATVVIGTSLDPDMNDELRVTVVATGIGMDKRPEITLVTNKQVQQPVMDRYQQHGMAPLTQEQKPVAKVVNDNAPQTAKEPDYLDIPAFLRKQAD
notes: FtsZ, E. coli, untagged, with D86N; pSEB160 derivative
B5: binds [4].

B6: binds [4].

B7: 6×His-FtsZ360 (domain or fragment, E. coli, UniProt P0A9A6 1-360, looked up)
chain: MFEPMELTNDAVIKVIGVGGGGGNAVEHMVRERIEGVEFFAVNTDAQALRKTAVGQTIQIGSGITKGLGAGANPEVGRNAADEDRDALRAALEGADMVFIAAGMGGGTGTGAAPVVAEVAKDLGILTVAVVTKPFNFEGKKRMAFAEQGITELSKHVDSLITIPNDKLLKVLGRGISLLDAFGAANDVLKGAVQGIAELITRPGLMNVDFADVRTVMSEMGYAMMGSGVASGEDRAEEAAEMAISSPLLEDIDLSGARGVLVNITAGFDLRLDEFETVGNTIRAFASDNATVVIGTSLDPDMNDELRVTVVATGIGMDKRPEITLVTNKQVQQPVMDRYQQHGMAPLTQEQKPVAKVVND
notes: FtsZ, E. coli, truncated by two stop codons after codon 360; lacks the conserved C-terminal tail; source: E. coli JS238 with pSD119-Z360, purified (Ni-NTA); not shown: His6, N-terminal, kept
B7: binds [4].

B8: SlmA (untagged version) (natural protein, E. coli, UniProt P0C093 1-198, looked up)
chain: MAEKQTAKRNRREEILQSLALMLESSDGSQRITTAKLAASVGVSEAALYRHFPSKTRMFDSLIEFIEDSLITRINLILKDEKDTTARLRLIVLLLLGFGERNPGLTRILTGHALMFEQDRLQGRINQLFERIEAQLRQVLREKRMREGEGYTTDETLLASQILAFCEGMLSRFVRSEFKYRPTDDFDARWPLIAAQLQ
notes: SlmA of E. coli; The forward primer slmA-SUMO-F begins at the second codon (GCA, Ala2), so the cleaved protein probably lacks the first methionine; also called SlmA-WT; nucleoid occlusion factor SlmA; source: E. coli BL21 (λDE3)/pLysS with pSUMO-SlmA, purified (Ni-NTA; H-SUMO tag cleaved with Ulp1, tag and protease removed on Ni-NTA); not shown: His-SUMO (H-SUMO), N-terminal, cleaved
For B8, the koff [5] was 0.0155 s⁻¹, the kon [5] was 74000 M⁻¹ s⁻¹ and the Kd [6] was 309 nM. It also gave a koff [6] of 0.0067 s⁻¹, a kon [6] of 21600 M⁻¹ s⁻¹ and a Kd [7] of 21000 nM. It also gave a koff [7] of 0.149 s⁻¹, a kon [7] of 7100 M⁻¹ s⁻¹ and a Kd [8] of 789 nM. For the same binder, the koff [8] was 0.0143 s⁻¹, the kon [8] was 18100 M⁻¹ s⁻¹ and the Kd [9] was 206 nM. It also gave a koff [9] of 0.0057 s⁻¹ and a kon [9] of 27500 M⁻¹ s⁻¹.
